T1: RBD of hCoV-229E, P15423
T1 chain: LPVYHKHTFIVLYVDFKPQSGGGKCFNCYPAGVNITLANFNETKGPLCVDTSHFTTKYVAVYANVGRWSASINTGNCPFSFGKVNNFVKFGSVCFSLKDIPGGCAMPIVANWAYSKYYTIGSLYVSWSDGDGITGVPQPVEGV

B1: gene recombinant of human ERp57 (protein disulfide-isomerase like protein ERp57) (protein)
chain: MGSSHHHHHHSSGLVPRGSHMLESDVLELTDDNFESRISDTGSAGLMLVEFFAPWCGHCKRLAPEYEAAATRLKGIVPLAKVDCTANTNTCNKYGVSGYPTLKIFRDGEEAGAYDGPRTADGIVSHLKKQAGPASVPLRTEEEFKKFISDKDASIVGFFDDSFSEAHSEFLKAASNLRDNYRFAHTNVESLVNEYDDNGEGIILFRPSHLTNKFEDKTVAYTEQKMTSGKIKKFIQENIFGICPHMTEDNKDLIQGKDLLIAYYDVDYEKNAKGSNYWRNRVMMVAKKFLDAGHKLNFAVASRKTFSHELSDFGLESTAGEIPVVAIRTAKGEKFVMQEEFSRDGKALERFLQDYFDGNLKRYLKSEPIPESNDGPVKVVVAENFDEIVNNENKDVLIEFYAPWCGHCKNLEPKYKELGEKLSKDPNIVIAKMDATANDVPSPYEVRGFPTIYFSPANKKLNPKKYEGGRELSDFISYLQREATNPPVIQEEKPKKKKKAQEDL
B2: gene recombinant of human P5 (protein disulfide isomerase family A member 6) (protein)
chain: MGSSHHHHHHSSGLVPRGSHMLYSSSDDVIELTPSNFNREVIQSDSLWLVEFYAPWCGHCQRLTPEWKKAATALKDVVKVGAVDADKHHSLGGQYGVQGFPTIKIFGSNKNRPEDYQGGRTGEAIVDAALSALRQLVKDRLGGRSGGYSSGKQGRSDSSSKKDVIELTDDSFDKNVLDSEDVWMVEFYAPWCGHCKNLEPEWAAAASEVKEQTKGKVKLAAVDATVNQVLASRYGIRGFPTIKIFQKGESPVDYDGGRTRSDIVSRALDLFSDNAPPPELLEIINEDIAKRTCEEHQLCVVAVLPHILDTGAAGRNSYLEVLLKLADKYKKKMWGWLWTEAGAQSELETALGIGGFGYPAMAAINARKMKFALLKGSFSEQGINEFLRELSFGRGSTAPVGGGAFPTIVEREPWDGRDGELPVEDDIDLSDVELDDLGKDEL
B3: gene recombinant of human ERp72 (protein disulfide isomerase family A member 4) (protein)
chain: MGSSHHHHHHSSGLVPRGSHEGPDEDSSNRENAIEDEEEEEEEDDDEEEDDLEVKEENGVLVLNDANFDNFVADKDTVLLEFYAPWCGHCKQFAPEYEKIANILKDKDPPIPVAKIDATSASVLASRFDVSGYPTIKILKKGQAVDYEGSRTQEEIVAKVREVSQPDWTPPPEVTLVLTKENFDEVVNDADIILVEFYAPWCGHCKKLAPEYEKAAKELSKRSPPIPLAKVDATAETDLAKRFDVSGYPTLKIFRKGRPYDYNGPREKYGIVDYMIEQSGPPSKEILTLKQVQEFLKDGDDVIIIGVFKGESDPAYQQYQDAANNLREDYKFHHTFSTEIAKFLKVSQGQLVVMQPEKFQSKYEPRSHMMDVQGSTQDSAIKDFVLKYALPLVGHRKVSNDAKRYTRRPLVVVYYSVDFSFDYRAATQFWRSKVLEVAKDFPEYTFAIADEEDYAGEVKDLGLSESGEDVNAAILDESGKKFAMEPEEFDSDTLREFVTAFKKGKLKPVIKSQPVPKNNKGPVKVVVGKTFDSIVMDPKKDVLIEFYAPWCGHCKQLEPVYNSLAKKYKGQKGLVIAKMDATANDVPSDRYKVEGFPTIYFAPSGDKKNPVKFEGGDRDLEHLSKFIEEHATKLSRTKEEL

How the values were obtained:
[1] = target: RBD of SARS-CoV-2 (B lineage), P0DTC2
RBD of hCoV-229E, P15423 = target: T1, RBD of hCoV-229E, P15423

Protein | disulfide bond cleavage activity (remaining rate of native RBD; maleimide-PEG 2k, SDS-PAGE) [1] | disulfide bond cleavage activity (remaining rate of native RBD; maleimide-PEG 2k, SDS-PAGE) (RBD of hCoV-229E, P15423)
B1 | The order of the disulfide bond cleavage activity of the RBD from highest to lowest was PDI, ERp46, P5, ERp72, and ERp57. | The order of the disulfide bond cleavage activity of the RBD of hCoV-229E from highest to lowest was PDI, ERp46, P5, Erp57, and ERp72.
B2 | The order of the disulfide bond cleavage activity of the RBD from highest to lowest was PDI, ERp46, P5, ERp72, and ERp57. | The order of the disulfide bond cleavage activity of the RBD of hCoV-229E from highest to lowest was PDI, ERp46, P5, Erp57, and ERp72.
B3 | The order of the disulfide bond cleavage activity of the RBD from highest to lowest was PDI, ERp46, P5, ERp72, and ERp57. | The order of the disulfide bond cleavage activity of the RBD of hCoV-229E from highest to lowest was PDI, ERp46, P5, Erp57, and ERp72.

Reference: US20260248897
